Results reported in the supplement of paper PMC10126150.
± gives the standard deviation of the averaged measurements.

Tested on: ATP
Experiment: switch fluorescence ratio, 500 uM ATP over buffer (Cy3 cluster intensity, sum of 5 cycles each) (fold (ratio)); higher = stronger signal-on switching upon ATP binding; sequences stand for … in TCGTCGGCAGCGTCAGATGTGTATAAGAGACAGTTTTTTTTTTTTTTTTTTTTTTTTT…TC
Conditions: aptamer strand: ATP DNA aptamer (quencher-CACCTGGGGGAGTATTGCGGAGGAAGG + anchor), 100 nM annealed; ATP concentration: 500 uM
Procedure, shortened: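 Per cluster, summed Cy3 intensity from the target cycles was divided by that from the buffer cycles to give the fluorescence ratio, then averaged per switch-domain sequence. Clusters outside 100-1000 RFU were excluded. The Cy3-labelled switching-strand clusters, on a modified Illumina MiSeq flow-cell, were annealed to 100 nM quencher-labelled ATP aptamer and imaged in selection buffer, then after 15 min with 500 uM ATP at 22 °C, for five cycles with NaOH stripping and re-annealing between them.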
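Note: ATP exposure 15 min at 22 °C before imaging.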

Sequence	switch fluorescence ratio
TCTGGATTGG	0.961 ± 0.029
GGGGGTCATT	0.9511 ± 0.0024
TTGTGAACCG	0.973 ± 0.014
CCGGGGGTGC	1.24 ± 0.27
AATTTGATGT	1.005 ± 0.0056
ATGTACGTAG	1.03 ± 0.025
ACTGAGGGGG	1 ± 0.01
TGATGTTGTC	0.988 ± 0.033
TCAGTTGTAT	0.979 ± 0.011
TCTAAGCCAT	1.05 ± 0.017
TTGCGAGGTC	0.985 ± 0.037
TGGGTGTCGT	1.02 ± 0.081
TAGTGGCAGC	0.9797 ± 0.0053
TTCTGTTTGG	1.01 ± 0.017
GCTGTTCCTC	1.07 ± 0.011
AAGAAAGGTC	0.994 ± 0.12
AGAGTTATGC	1.022 ± 0.01
ACAGGCAGGA	1.01 ± 0.022
GGAAGTTTAA	1 ± 0.02
GGCTAGGTGC	1.24 ± 0.058
AGGATCGAGG	1.02 ± 0.028
CGAGTTGCTG	0.988 ± 0.11

Sequence	switch fluorescence ratio
GATCTATGTG	1.01 ± 0.042
CAGGGTGAAT	0.9909 ± 0.0056
TTGAGACGGT	1 ± 0.017
TCAGGGGAAG	0.999 ± 0.015
CGTGTAATTT	0.993 ± 0.016
TTTACGTGCG	1.054 ± 0.0061
ACACGCCCAA	1.12 ± 0.069
TTTATCTGAA	0.9783 ± 0.0017
TTTTTGATTG	1.01 ± 0.014
CAAATGGGCC	0.993 ± 0.019
CATGGGGGGT	0.994 ± 0.014
AAGTTGTGA	0.973 ± 0.035
ATATTTTACG	1.02 ± 0.06
GGGTTAGAGA	0.9668 ± 0.0032
CATTATTGTT	0.999 ± 0.033
TGGGTGCGG	0.984 ± 0.026
ACACGTGCCC	1 ± 0.028
TAGAATTCTT	0.997 ± 0.078
GGGGTAAAAT	1.01 ± 0.035
ACGCTGAGCA	1.033 ± 0.008
ATCCAAATGG	1.01 ± 0.033
GGGAGCGCGG	0.994 ± 0.013

Sequence	switch fluorescence ratio
AATTTTTCAT	0.977 ± 0.028
CGGATGTGTT	0.951 ± 0.048
AACATATCGG	1.02 ± 0.029
TATCTATTTT	0.964 ± 0.011
AATAGTTTAT	0.986 ± 0.022
AGTGGGGTCA	0.989 ± 0.021
GATGTGGGTG	0.9957 ± 0.0054
TGCCCGGTTT	1.01 ± 0.0077
GAGAGGGAAG	1.004 ± 0.0077
CGTAGGAGG	0.9784 ± 0.0044
GCCATTGAGG	0.9668 ± 0.0031
GGCAGCAAGG	1.084 ± 0.0029
CTATGGGGGG	0.993 ± 0.035
AATGGTTTGG	0.985 ± 0.013
GTGTTAATGA	0.967 ± 0.019
TCGTTTAACA	0.9602 ± 0.0092
CTTTGGCAGC	1.06 ± 0.017
CGTTGGGTCC	0.987 ± 0.029
GATATTAATT	0.9784 ± 0.0031
GAATGGGGAT	1.01 ± 0.076
ATGGTAGTAA	1.01 ± 0.024
TTAAGACTGT	1.01 ± 0.037

Sequence	switch fluorescence ratio
TAGGGGGCTC	0.959 ± 0.02
GAAATATTAG	1.02 ± 0.032
CTAAACAGAA	0.9996 ± 0.0027
TTTTTGTACT	1.11 ± 0.083
TTGCCTTCTT	1.03 ± 0.033
ATTTTCGTTG	0.9666 ± 0.0095
GGGGGTAGGG	1.03 ± 0.073
TGTGAGATTG	1 ± 0.033
GCCTTTCAAT	1.024 ± 0.0015
TAGTGGTGGG	0.9844 ± 0.0089
AGGAAGGCAC	1.05 ± 0.016
GTTGGTGTTG	0.998 ± 0.032
TCATTGGGG	0.974 ± 0.029
TTATATTAGA	0.971 ± 0.0099
TAAAGTGTTG	1.02 ± 0.024
ATCCGTGTCG	1.02 ± 0.048
TTATTCGGCA	1.005 ± 0.0036
CGGATGTTTT	0.984 ± 0.02
GTTTTACCGC	1.01 ± 0.018
